Laboratory results from doi:10.1101/2020.02.12.946020.

Target: hMutLγ (MLH1-MLH3) (human, UniProt P40692;Q9UHC1 1-756;1-1453)
Experiment: EMSA

Chain of hMutLγ (MLH1-MLH3) (P40692 whole entry, chain 1 of 2): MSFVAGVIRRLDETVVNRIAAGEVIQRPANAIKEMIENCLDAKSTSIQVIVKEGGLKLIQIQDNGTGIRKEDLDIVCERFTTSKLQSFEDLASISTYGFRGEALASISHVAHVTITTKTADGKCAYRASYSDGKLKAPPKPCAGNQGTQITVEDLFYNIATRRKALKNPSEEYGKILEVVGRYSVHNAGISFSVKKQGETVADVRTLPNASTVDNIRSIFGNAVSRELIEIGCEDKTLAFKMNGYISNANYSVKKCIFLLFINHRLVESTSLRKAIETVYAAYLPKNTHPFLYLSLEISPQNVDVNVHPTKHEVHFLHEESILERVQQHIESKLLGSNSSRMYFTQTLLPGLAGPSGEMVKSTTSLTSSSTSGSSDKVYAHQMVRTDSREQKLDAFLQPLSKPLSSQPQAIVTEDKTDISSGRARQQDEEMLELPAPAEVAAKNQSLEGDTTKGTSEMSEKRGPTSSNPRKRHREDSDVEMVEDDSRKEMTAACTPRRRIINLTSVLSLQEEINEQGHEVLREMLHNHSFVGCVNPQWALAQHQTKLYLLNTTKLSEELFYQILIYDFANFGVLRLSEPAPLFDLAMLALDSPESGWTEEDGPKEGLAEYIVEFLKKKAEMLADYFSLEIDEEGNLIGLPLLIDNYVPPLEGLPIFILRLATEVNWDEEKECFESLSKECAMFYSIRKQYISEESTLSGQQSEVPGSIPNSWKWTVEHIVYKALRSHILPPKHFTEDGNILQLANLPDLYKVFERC
Chain of hMutLγ (MLH1-MLH3) (Q9UHC1 whole entry, chain 2 of 2): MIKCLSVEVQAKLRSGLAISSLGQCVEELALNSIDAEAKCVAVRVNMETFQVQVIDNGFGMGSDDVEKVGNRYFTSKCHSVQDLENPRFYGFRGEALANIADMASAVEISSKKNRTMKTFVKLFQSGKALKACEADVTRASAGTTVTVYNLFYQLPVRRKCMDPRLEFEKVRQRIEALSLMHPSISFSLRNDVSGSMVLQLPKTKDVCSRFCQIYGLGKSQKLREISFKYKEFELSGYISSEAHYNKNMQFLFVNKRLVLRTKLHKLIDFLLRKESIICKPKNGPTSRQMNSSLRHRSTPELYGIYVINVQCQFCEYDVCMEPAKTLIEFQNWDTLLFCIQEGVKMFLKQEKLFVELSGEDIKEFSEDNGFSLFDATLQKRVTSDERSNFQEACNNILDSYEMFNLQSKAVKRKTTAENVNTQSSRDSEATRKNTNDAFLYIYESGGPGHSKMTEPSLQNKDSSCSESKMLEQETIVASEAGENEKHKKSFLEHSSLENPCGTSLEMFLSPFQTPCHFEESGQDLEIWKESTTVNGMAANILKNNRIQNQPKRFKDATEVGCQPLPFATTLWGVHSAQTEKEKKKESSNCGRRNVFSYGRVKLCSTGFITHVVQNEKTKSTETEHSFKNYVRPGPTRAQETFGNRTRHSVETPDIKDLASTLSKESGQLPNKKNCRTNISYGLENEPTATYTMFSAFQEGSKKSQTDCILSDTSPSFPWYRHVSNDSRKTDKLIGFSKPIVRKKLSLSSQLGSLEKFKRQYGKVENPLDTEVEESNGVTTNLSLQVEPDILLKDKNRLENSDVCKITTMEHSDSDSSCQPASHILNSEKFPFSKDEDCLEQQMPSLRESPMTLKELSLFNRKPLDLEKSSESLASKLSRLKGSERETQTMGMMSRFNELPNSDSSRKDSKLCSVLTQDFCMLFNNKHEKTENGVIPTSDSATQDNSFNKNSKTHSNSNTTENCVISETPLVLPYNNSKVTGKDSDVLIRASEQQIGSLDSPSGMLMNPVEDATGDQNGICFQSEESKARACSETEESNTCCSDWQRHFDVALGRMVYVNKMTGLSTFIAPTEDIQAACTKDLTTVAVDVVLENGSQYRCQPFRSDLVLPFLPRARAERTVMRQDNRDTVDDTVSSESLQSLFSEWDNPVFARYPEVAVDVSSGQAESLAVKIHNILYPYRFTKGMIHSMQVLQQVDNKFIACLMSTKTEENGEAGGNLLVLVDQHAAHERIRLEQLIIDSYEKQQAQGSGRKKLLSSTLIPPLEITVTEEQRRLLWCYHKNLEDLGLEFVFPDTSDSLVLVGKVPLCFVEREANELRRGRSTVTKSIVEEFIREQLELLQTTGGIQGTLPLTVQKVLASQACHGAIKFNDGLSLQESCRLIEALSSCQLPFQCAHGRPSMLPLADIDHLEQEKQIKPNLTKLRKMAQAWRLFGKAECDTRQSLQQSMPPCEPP

B1: 40 nt poly-dT ssDNA (dT40) (ssDNA)
DNA: TTTTTTTTTTTTTTTTTTTTTTTTTTTTTTTTTTTTTTTT
binding result: binds
